Test results taken from US20200276322A1 (ADMINISTRATORS OF THE TULANE EDUCATIONAL FUND, published 2020).
Square brackets hold non-standard residues; d marks the D form. Ends that are not written are not given here.

Biological target: GFP1-10 protein
Experiment: cell-based or functional assay

Binder	split GFP assay, GFP fluorescence against Tat-GFP-11, 40 µM, 37 °C and 22 °C	split GFP assay, GFP fluorescence over background, 10 µM, 22 °C	split GFP assay, GFP fluorescence over background, 10 µM, 37 °C
G[dR][dK][dK][dR][dR][dQ][dR][dR][dR][dP][dP][dQ]RDHMVLHEYVNAAGIT [Tat(D)-GFP-11]	2 fold		
[dR][dK][dK][dR][dW][dF][dR][dR][dR][dR][dP][dK][dW][dK][dK]RDHMVLHEYVNAAGIT [CPP-1(D)-GFP-11]		2.2 fold	2.1 fold
